Experimental data published in the nanobody polyreactivity screen of Harvey et al. (2022).

Test: yeast display, Sf9 membrane polyspecificity reagent, FACS + sequencing; frameworks hold sequencing errors
Procedure, shortened: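 In a synthetic yeast display library (Saccharomyces cerevisiae BJ5465), nanobody expression was induced with galactose for 36–48 hours. FACS gates were set low and high (top ~1%) using anti-HA fluorescence for expression and streptavidin fluorescence for binding of the Sf9 membrane reagent. Each polyreactivity label is drawn from the gate of origin.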

Sequence	polyreactivity (PSR sort gate)
QVQLVESGGGLVQAGGSLRLSCAASGGTFDSYVMGWYRQAPGKERELVAAITWSGGSTYYAESVKGRFTISRDNAKNTVYLQMNSLKPEDTAVYYCNNGGSTTYAYDYWGQGTQVTVSS	low polyreactivity
QVQLVESGGGLVQAGGSLRLSCAASGGTFDTYAMGWYRQAPGKERELVAGIDWSGGSTYYADSVKGRFTISRDNAKNTVYLQMNSLKPEDTAVYYCAADYYYPSQMDYWGQGTQVTVSS	low polyreactivity
QVQLVESGGGLVQAGGSLRLSCAASGGTFDTYAMGWYRQAPGKERELVAGIDWSGGSTYYADSVKGRFTISRDYAKNTVYLQMNSLKPEDTAVYYCAADFYYPSQMDYWGQGTQVTVSS	low polyreactivity
QVQLVESGGGLVQAGGSLRLSCAASGGTFDVYTMGWYRQAPGKERELVAVISSSGGGTYYADSVKGRFTISRDNAKNTVYLQMNSLKPEDTAVYYCAARRKRQNTYYPYYYWGQGTQVTVSS	high polyreactivity
QVQLVESGGGLVQAGGSLRLSCAASGGTFDWNTMGWYRQAPGKERELVASITSGGRTNYADSVKGRFTISRDNAKNTVYLQMNSLKPEDTAVYYCAKYRRSAYPWQTWVGQKFDYWGQGTQVTVSS	low polyreactivity
QVQLVESGGGLVQAGGSLRLSCAASGGTFERNAMGWYRQAPGKERELVAAITGSGGRTYYADSVKGRFTISRDNAKNTVYLHMNSLKPEDTAVYYCAAVPWWKYNYWGQGTQVTVSS	high polyreactivity
QVQLVESGGGLVQAGGSLRLSCAASGGTFFENAMGWDRQAPGKERELVAAISSSGASTYYADSVKGRFTISRDNAKNTVYLQMNSLKPEDTAVYYCNAGQRVRSTLYDYWGQGTQVTVSS	high polyreactivity
QVQLVESGGGLVQAGGSLRLSCAASGGTFFGYAMGWYRPAPGKERELVAAISGSGGRTYYADSVKGRFTISRDNAKNTVYLQMNSLKPEDTAVYYCAADATHETYYPFYYWGQGTQVTVSS	high polyreactivity
QVQLVESGGGLVQAGGSLRLSCAASGGTFFSYTKGWYRQAPGKERELVAAITWSGASTYYADSVKGRFTISRDNAKNTVYIQMNSLKPEDTAVYYCAADSYDSPGYLTTSTYRLDYWGQGTHVTVSS	low polyreactivity
QVQLVESGGGLVQAGGSLRLSCAASGGTFFYNAMGWYRQAPGKERELVAAINGGTSTNYADSVKGRFTISRDNAKNTVYLQMNSLKPEDTAVYYCAAVYRRLGRYDWYDYWGQGTQVTVSS	low polyreactivity
QVQLVESGGGLVQAGGSLRLSCAASGGTFGSYAMGWYRQAPGKERELVAAIRSGDRTYYADSVKGRFTISRDNAKNTVYLQMNSLKPEDTAVYYCNADGYARFRTYYSRDTREYDYWGQGTQVTVSS	low polyreactivity
QVQLVESGGGLVQAGGSLRLSCAASGGTFGSYAMGWYRQAPGKERELVAAITGSGGRTYYADSVKGRFTISRDNAKNTVYLQMNSLKPEDTAVYYCNATRGIGPPFYYWGQGTKVTVSS	high polyreactivity
QVQLVESGGGLVQAGGSLRLSCAASGGTFGTNAMGWYRQAPGKERELVATIRTSVGSTYYADSVKGRFTISRDNAKNTVYLQMNSVKPEDTAVYYCAAGVPKNGQAGYDYWGQGTQVTVSS	high polyreactivity
QVQLVESGGGLVQAGGSLRLSCAASGGTFGVNAMGWYRQAPGKERELVAAISSSGGRTYYADSVKGRFTISRDNAKNTVFLQMNSLKPEDTAVYYCAARNYFWGQGTQVTVSS	low polyreactivity
QVQLVESGGGLVQAGGSLRLSCAASGGTFGYNAMGWYRQAPGKERELVAAITGGGRTYYADSVKGRFTISRDNAKNTVYLQMNSLKPEDTAVYYCNADYAYYSYDYWGQGTQVTVSS	low polyreactivity
QVQLVESGGGLVQAGGSLRLSCAASGGTFGYYAMGWYRQAPGKDRELVAGINYSGGRTYYADSVKGRFTISRDNAKNTVYLQMNSLKPEDTAVYYCAAQAYVGYRGYDYWGQGTQVTVSS	high polyreactivity
QVQLVESGGGLVQAGGSLRLSCAASGGTFHYYAMGWYRQAPGKERELVAAISWSGGSTYYADSVKGRFTISRDNAKNTVYLQMNSLKPEDTAVYYCAAETYPYLFHTYDYWGQGTQVTVSS	low polyreactivity
QVQLVESGGGLVQAGGSLRLSCAASGGTFINYAMGWYRQAPGKERELVAGISQSGDSTYYADSVKGRFTISRDNAKNTVYLQMNSLKPEDTAVYYCNADAVAQQYDWWENYDYWGQGTQVTVSS	high polyreactivity
QVQLVESGGGLVQAGGSLRLSCAASGGTFIRYAMALYRQAPGKERELVADITSSGDSTYYADSVKGRFTISRDNAKNTVYLPMNSLITEDTAVYYCATTHDYWLWGMGYWGQGTQVTVSS	high polyreactivity
QVQLVESGGGLVQAGGSLRLSCAASGGTFKTYVMGWSRQEPGKERELVAVISGSGASTYYADSVKGRFTISRDNAKNTVYLQMNSLKPEDTAVYYCAARYAWGWSGYYYWGQGTQVTVSS	high polyreactivity
QVQLVESGGGLVQAGGSLRLSCAASGGTFKYYAMGWYRQAPGKERELVADITSGGSTNYADYVKGRFTISRDNAKNTVYLQMNSLKPEDTAVYYCAKRRYWVKYDYWGQGTQVTVSS	high polyreactivity
QVQLVESGGGLVQAGGSLRLSCAASGGTFLNYAMGWYRQAPGKECELVAVITNGDSTYYADSVKGRFTISRDNAKNTVYLQMNSLKPEDTAVYYCNADDWGQYNIWYDYWGQGTQVTVSS	low polyreactivity

Sequence	polyreactivity (PSR sort gate)
QVQLVESGGGLVQAGGSLRLSCAASGGTFLRNAMGWYRQAPGKERELVAAISARGGSTRYADSVKGRFTISRDNAKNTVYLQMNSLKPEDTAVYYCDATSSHHRRMEYWGQGTQVTVSS	high polyreactivity
QVQLVESGGGLVQAGGSLRLSCAASGGTFLYNAMGWYRQAPGKERELVAAISRSGGRTDYADSVKGRFTISRDNAKNTVYLQMNSLKPEDTAVYYCATPGTYYTHRYRYDYWGHGTQVTVSS	high polyreactivity
QVQLVESGGGLVQAGGSLRLSCAASGGTFNTYAMGWYRPAPGKERELVAAITSSGGSTFYADSVKWRFTISRDNAKNTVYLQMNSLKPEDTAVYYCAAKSYWTIVYRHPGYYYWGQGTQVTVSS	low polyreactivity
QVQLVESGGGLVQAGGSLRLSCAASGGTFPGYTMGWYRQAPGKERELVAAISRGGRTYYADSVKGRFTISRDNAKNTVYLQMNSLKPEDTAVYYCNAVTKYGNFDYWGQGTQVTVSS	high polyreactivity
QVQLVESGGGLVQAGGSLRLSCAASGGTFPWYSMGWYRPATGKEREMVAGITWGGVSTYADSVKGRFTISRDNAKNTVYLQMNSLKQEDTAVYYCASRTSFTRGPWYKFYYWGQGTQVTVSS	high polyreactivity
QVQLVESGGGLVQAGGSLRLSCAASGGTFQAYAMGWYRQAPGKERELVAAISRSGGRTYYADSVKGRFTISRDNAKNTVYLQMNSLKPEDTAVYYCNAGAYYRNEMDYWGQGTQVTVSS	high polyreactivity
QVQLVESGGGLVQAGGSLRLSCAASGGTFQINAMGWYRQAPGKERELVAAISRSGGSTSYADSVKGRFTISRDNAKNTVYLQMNSLKPEDTAVYYCNKRVRATAWYDYWGQGTQVTVSS	high polyreactivity
QVQLVESGGGLVQAGGSLRLSCAASGGTFQPNAMGWYRQAPGKERELVAAISWSDGSTYYADSVKGRFTISRDNAKNTVYLQMNSLKPEDTAVYYCAADFTYYDSPYRDYNYESWGQGTQVTVSS	low polyreactivity
QVQLVESGGGLVQAGGSLRLSCAASGGTFRAYVMGWYRQAPGKERELVAAISRSGTRTYYADSVKGRFTISRDNAKNTVYLQMNSLKPEDTAVYYCAAAAKSWLFDYWGQGTQVTVSS	high polyreactivity
QVQLVESGGGLVQAGGSLRLSCAASGGTFRLYAMGWYRQAPGKERELVAAITGSSGGTYYADSVKGRFTISRDNAKNTVYLQMNSLKPEDTAVYYCAARSSYWGQGTQVTVSS	low polyreactivity
QVQLVESGGGLVQAGGSLRLSCAASGGTFRPYAMGWYRQAPGKERELVATIRSSGGRTYYADSVKGRFTISRDNAKNTVYLQMISLKPEDTAVYSCAADRTRGYGNDYWGQGTQVTVSS	high polyreactivity
QVQLVESGGGLVQAGGSLRLSCAASGGTFRRYTMGWYRPAPGKERELVAVISRSGGSTYYADSVKGRFTISRDIAKNTVYLQMNSLKPEDTAVYYCAVVYYNGYDWGQGTQVTVSS	high polyreactivity
QVQLVESGGGLVQAGGSLRLSCAASGGTFRSNAMGWYRQAPGKERELVAASTNYADSVKGRFTISRDNAKNTVYLQMNSLKPEDTAVYYCAAGPTDSQSGMDYWGQGTQVTVSS	low polyreactivity
QVQLVESGGGLVQAGGSLRLSCAASGGTFRVYVMGWYRQAPGKERELVAAISRGGGSTYYADSVKGRFTISRDNAKNTVYLQMNSLKPEDTAVYYCAARVWRYPWRASEYDYWGQGTQVTVSS	high polyreactivity
QVQLVESGGGLVQAGGSLRLSCAASGGTFRYNAMGWYRQAPGKERELVAAISRSGGSTHYADSVKGRFTISRDNAKNTVYLQMNSLKPEDTAVYYCAATVTFVPSRAGFYKYNYWGQGTQVTVSS	high polyreactivity
QVQLVESGGGLVQAGGSLRLSCAASGGTFRYYAMGWYRQAPGKERELVAAITSGDTTNYADSVKGRFTISRDNAKNTVYLQMNSLKPEDTAVYYCAKELQVRQAGDYWGQGTQVTVSS	low polyreactivity
QVQLVESGGGLVQAGGSLRLSCAASGGTFSGYTMGWYRQAPGKEWELVAAITRSGSSTYYADSVKGRFTISRDNAKNTVYLQMNSLKPEDTAVYYGAATYGSGVYKYDYWGQGTQVTVSS	high polyreactivity
QVQLVESGGGLVQAGGSLRLSCAASGGTFSKYAMGWYRQAPGKEREFVAAITVSGGGTYYADSVKGRFTISRDNAKYTVYLQMNSLKPEDTAVYDCAADLAWTASDYWGQVTQVTVSS	low polyreactivity
QVQLVESGGGLVQAGGSLRLSCAASGGTFSLNAMGWYRQAPGKEREFVAGITWGGGRTYYADSVKGRFTISRDNAKNTVYLQMNSLKPEDTAVYYCAAGAWRGPYSGYYYWGQGTQVTVSS	low polyreactivity
QVQLVESGGGLVQAGGSLRLSCAASGGTFSLYAMGWYRQAPGKEREFVAAISWRGTSTYYADSVKGRFTISRDNAKNTVYLQMNSLKPEDTAVYYCAARAWHEYGSWGQGTQVTVSS	high polyreactivity
QVQLVESGGGLVQAGGSLRLSCAASGGTFSPYAMGWYRQAPGKERELVAAIRYSGDRTYYADSVKGRFTISRDNAKNTVYLQMNSLKPEDTAVYYCAGPYYNTGYRYGYWGQGTQVTVSS	high polyreactivity
